Patent US20180355059A1 (PHARMAEXPLORER, published 2018)
Numbering of substitutions follows the chain as printed.

B1: 74C10A8, fully human anti-PCSK9 antibody (antibody, human IgG1, V domains shown)
VH: QVQLQESGPGLVKPSETLSLTCSVSGGSINTYYWSWIRQPPGKGLEWIGYIYYSGSTNYNPSLKSRVTISVDTSKNQFSLKLTSVTAADTAVYYCARERFTMVRGVMMDYYYYGMDVWGQGTTVTVSS
VL: DIQLTQSPSFLSASVGDRVTITCRASQGISSYLAWYQQKPGKAPKLLIYAASTLQSGVPSRFSGSGSGTEFTLTISSLQPEDFATYYCQQLNSYPRTFGQGTKVEIK
B2: 139G1C5, fully human anti-PCSK9 antibody (antibody, human IgG1, V domains shown)
VH: QVQLQESGPGLVKPSGTLSLTCAVSGGSISRNNWWSWVRQPPGKGLEWIGEIYHSGSTNYNPSLKSRVTISVDKSKNQFSLKLSSVTAADTAVYYCARDLLGIGLDYWGQGTLVTVSS
VL: EFVLTQSPATLSLSPGERAILSCRASQSFSSYIAWYQQKPGQAPRLLIYDASNRATGIPARFSGSGSGTDFTLTISSLEPEDFAVYYCQQHSNWMYTFGQGTKLEIK
B3: 152G2F7, fully human anti-PCSK9 antibody (antibody, human IgG1, V domains shown)
VH: EVQLVESGGGLVQPGGSLRLSCAASEFTFGGYWMTWVRQAPGKGLEWVANIKQDGSEKYYVDSVKGRFTISRDNAKNSLYLHMNSLRAEDTAVYYCARDRTTMIRGVSLYYYYYGMDVWGQGTAVTVSS
VL: B2 VL with F2I, I20T, F29V, I33L, H91R, M95P, Y96L, Q100G, L104V
B4: 96F8C6, fully human anti-PCSK9 antibody (antibody, human IgG1, V domains shown)
VH: EVQLVESGGGLVQPGGSLRLSCAASGITFSSYWMSWVRQAPGKGLEWVANIKQDGSEKYYVDSVKGRFTISRDIAKNSLYLQMNSLRAEDTAVYYCARDRGTYYYGSGSYNYYYYGMDVWGQGTTVTVSS
VL: not shown
notes: also called 98F8C6

Tests used:
[1] = target: T1, recombinant human PCSK9-His protein (Immunogen A) (human, UniProt Q8NBP7 31-692, limits assumed, biotinylated in the ELISA assays); test: ELISA; antibody 0 nM
T1 construct: also called hPCSK9-His; His-tagged hPCSK9; not shown: His tag

[2] = target: T2, recombinant cyno monkey PCSK9 protein (cyno monkey, UniProt A8T666 31-692 (rhesus entry), limits assumed, biotinylated in the ELISA assays); test: ELISA; antibody 0 nM
T2 construct: also called cyno PCSK9; Cyno Monkey PCSK9-His

[3] = target: T1, recombinant human PCSK9-His protein …; test: ELISA; antibody 0.67 nM
[4] = target: T1, recombinant human PCSK9-His protein …; test: ELISA; antibody 6.67 nM
[5] = target: T2, recombinant cyno monkey PCSK9 protein; test: ELISA; antibody 0.67 nM
[6] = target: T2, recombinant cyno monkey PCSK9 protein; test: ELISA; antibody 6.67 nM
[7] = target: T1, recombinant human PCSK9-His protein …; test: ELISA; antibody 0.067 nM
[8] = target: T1, recombinant human PCSK9-His protein …; test: ELISA; antibody 66.67 nM
[9] = target: T2, recombinant cyno monkey PCSK9 protein; test: ELISA; antibody 0.067 nM
[10] = target: T2, recombinant cyno monkey PCSK9 protein; test: ELISA; antibody 66.67 nM
[11] = target: T1, recombinant human PCSK9-His protein …; test: ELISA; antibody 0.0067 nM
[12] = target: T2, recombinant cyno monkey PCSK9 protein; test: ELISA; antibody 0.0067 nM
[13] = target: T1, recombinant human PCSK9-His protein …; test: ELISA; antibody 0.00067 nM
[14] = target: T2, recombinant cyno monkey PCSK9 protein; test: ELISA; antibody 0.00067 nM
[15] = target: T1, recombinant human PCSK9-His protein …; test: ELISA; antibody 0.000067 nM
[16] = target: T2, recombinant cyno monkey PCSK9 protein; test: ELISA; antibody 0.000067 nM
[17] = target: T1, recombinant human PCSK9-His protein …; test: BLI, Octet Red 96; antibody on AHC sensor
Description: Dissociation constants were determined by Octed red 96 (Fortiebio). The detailed operation and methods were followed according to the specifications of the instrument provided by the manufacturer. Briefly, an AHC sensor (Anti-human Fc sensor, Fortiebio) was used for the affinity determination. The anti-PCSK9 antibody was diluted to 10 ug/mL in PBS buffer (pH7.4) containing 0.1% (w/w) BSA and 0.02% (v/v) Tween 20 and incubated with the AHC sensor. […] The reaction mixture was further incubated in PBS buffer (pH7.4) containing 0.1% (v/w) BSA and 0.02% (v/v) Tween 20 at 30° C. for 5 minutes.

[18] = target: T1, recombinant human PCSK9-His protein …; test: ELISA of PCSK9 binding to LDLR ECD; antibody 0 nM
[19] = target: T1, recombinant human PCSK9-His protein …; test: ELISA of PCSK9 binding to LDLR ECD; antibody 8 nM
[20] = target: T1, recombinant human PCSK9-His protein …; test: ELISA of PCSK9 binding to LDLR ECD; antibody 40 nM
[21] = target: T1, recombinant human PCSK9-His protein …; test: ELISA of PCSK9 binding to LDLR ECD; antibody 1.6 nM
[22] = target: T1, recombinant human PCSK9-His protein …; test: ELISA of PCSK9 binding to LDLR ECD; antibody 200 nM
[23] = target: T1, recombinant human PCSK9-His protein …; test: ELISA of PCSK9 binding to LDLR ECD; antibody 0.01 nM
[24] = target: T1, recombinant human PCSK9-His protein …; test: ELISA of PCSK9 binding to LDLR ECD; antibody 0.06 nM
[25] = target: T1, recombinant human PCSK9-His protein …; test: ELISA of PCSK9 binding to LDLR ECD; antibody 0.32 nM
[26] = target: T1, recombinant human PCSK9-His protein …; test: SPR, Biacore T200; antibody captured by anti-human Fc
Description: Anti-human Fc IgG was immobilized on flow cells 1 and 2: HBS-EP+(10 mM HEPES, 150 mM NaCl, 3 mM EDTA, 0.05% P20, pH 7.4) was used as running buffer, and the immobilization of anti-human Fc IgG was carried out using the immobilization wizard template. Flow cells 1 and 2 of a Series S CM5 sensor chip were activated with freshly-mixed 50 mmol/L NHS and 200 mmol/L EDC. 20 ug/mL of anti-human Fc IgG diluted in 10 mM NaAC (pH 4.5) was injected into the activated flow cells 1 and 2. The remaining active coupling sites were blocked with 1M ethanolamine.
KD measurements were carried out with HBS-EP+ as the running buffer. Each antibody was injected over the CM5 sensor flow cell 2 with a flow rate of 10 uL/min to reach response 230 RU. […] Buffer flow was maintained for 400 seconds for dissociation measurements (30 uL/min). To remove the tested antibody from the surface, 10 mM glycine-HCl pH 1.5 was injected for 20 seconds (30 ulJmin). Flow cell 1 was used as reference flow cell. […] The KD value for each antibody was evaluated using Biacore T200 evaluation software 1.0, and the data was fit with a 1:1 binding model.

T2 sequence (A8T666 31-692 limits assumed): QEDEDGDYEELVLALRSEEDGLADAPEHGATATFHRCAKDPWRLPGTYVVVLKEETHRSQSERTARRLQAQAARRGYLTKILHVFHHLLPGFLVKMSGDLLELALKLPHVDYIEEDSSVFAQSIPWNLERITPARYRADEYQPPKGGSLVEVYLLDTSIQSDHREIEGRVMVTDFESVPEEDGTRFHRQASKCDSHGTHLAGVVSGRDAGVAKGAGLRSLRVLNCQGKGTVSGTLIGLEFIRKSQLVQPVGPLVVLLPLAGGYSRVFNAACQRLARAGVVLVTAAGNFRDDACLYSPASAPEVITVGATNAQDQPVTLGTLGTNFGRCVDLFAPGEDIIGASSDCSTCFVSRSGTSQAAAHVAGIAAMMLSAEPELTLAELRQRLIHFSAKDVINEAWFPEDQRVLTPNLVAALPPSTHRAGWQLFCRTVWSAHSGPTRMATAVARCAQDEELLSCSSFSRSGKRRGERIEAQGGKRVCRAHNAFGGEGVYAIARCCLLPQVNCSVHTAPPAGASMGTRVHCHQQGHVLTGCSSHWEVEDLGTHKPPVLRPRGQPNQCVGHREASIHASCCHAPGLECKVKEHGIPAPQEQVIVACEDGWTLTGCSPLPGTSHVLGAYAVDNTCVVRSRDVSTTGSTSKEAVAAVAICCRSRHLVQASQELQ

Binder	OD450 nm [1] [OD450 nm]	OD450 nm [2] [OD450 nm]	OD450 nm [3] [OD450 nm]	OD450 nm [4] [OD450 nm]	OD450 nm [5] [OD450 nm]	OD450 nm [6] [OD450 nm]	OD450 nm [7] [OD450 nm]	OD450 nm [8] [OD450 nm]	OD450 nm [9] [OD450 nm]	OD450 nm [10] [OD450 nm]	OD450 nm [11] [OD450 nm]	OD450 nm [12] [OD450 nm]	OD450 nm [13] [OD450 nm]	OD450 nm [14] [OD450 nm]	OD450 nm [15] [OD450 nm]	OD450 nm [16] [OD450 nm]	Kd [17] [nM]	OD450 nm [18] [OD450 nm]	OD450 nm [19] [OD450 nm]	OD450 nm [20] [OD450 nm]	other results
B1	0.06	0.06	3	3.04	2.1	2.73	1.52	3.04	0.48	2.86	0.23	0.11	0.08	0.06	0.06	0.13	14.5	2.4	1.76	1.43	OD450 nm [21]: 2.19 OD450 nm; OD450 nm [22]: 1.41 OD450 nm; OD450 nm [23]: 2.31 OD450 nm; OD450 nm [24]: 2.28 OD450 nm; OD450 nm [25]: 2.32 OD450 nm
B2	0.06	0.06	3.05	3.06	3	3.01	1.7	3.04	1.84	3	0.26	0.29	0.08	0.08	0.06	0.08	0.63	2.31	1.57	1.35	koff [17]: 0.000161 s⁻¹; kon [17]: 254000 M⁻¹ s⁻¹; OD450 nm [21]: 2.16 OD450 nm; OD450 nm [22]: 1.29 OD450 nm; OD450 nm [23]: 2.33 OD450 nm; OD450 nm [24]: 2.31 OD450 nm; OD450 nm [25]: 2.28 OD450 nm; Kd [26]: 0.0709 nM; koff [26]: 2.4e-05 s⁻¹; kon [26]: 240000 M⁻¹ s⁻¹
B3	0.06	0.06	2.91	3.12	1.56	2.89	0.94	3.07	0.26	2.97	0.15	0.08	0.07	0.06	0.06	0.07	2.69	2.29	1.86	1.31	koff [17]: 0.000453 s⁻¹; kon [17]: 168000 M⁻¹ s⁻¹; OD450 nm [21]: 2.19 OD450 nm; OD450 nm [22]: 1.32 OD450 nm; OD450 nm [23]: 2.27 OD450 nm; OD450 nm [24]: 2.25 OD450 nm; OD450 nm [25]: 2.31 OD450 nm
B4	0.06	0.06	3.09	3.1	2.99	3	1.65	3.06	1.86	2.97	0.25	0.31	0.08	0.09	0.06	0.08	3.63	2.4	2.38	2.38	OD450 nm [21]: 2.4 OD450 nm; OD450 nm [22]: 2.4 OD450 nm; OD450 nm [23]: 2.38 OD450 nm; OD450 nm [24]: 2.43 OD450 nm; OD450 nm [25]: 2.45 OD450 nm; Kd [26]: 2.33 nM
